From patent US20230265198A1 (TWIST BIOSCIENCE, published 2023)
Where a chain is given by its changes, count along the chain named.

B1: NRP1-257 (antibody, IgG2, V domains shown)
VH: EVQLLESGGGLVQPGGSLRLSCAASGFTFSRYGMSWVRQAPGKGLEWVSTISGSGGSTSYADSVKGRFTISRDNSKNTLYLQMNSLRAEDTAVYYCARASHVDIPRRAPKRRHSFDSWGQGTLVTVSS
VL: DIQMTQSPSSLSASVGDRVTITCRASQTISNYVNWYQQKPGKAPKLLIYAASSLHAGVPSRFSGSGSGTDFTLTISSLQPEDFATYYCQQGYSTPLTFGGGTKVEIK
B2: NRP1-252 (antibody, IgG2, V domains shown)
VH: EVQLLESGGGLVQPGGSLRLSCAASGFTFRSLAVSWVRQAPGKGLEWVSTITGSGGATYYADSVKGRFTISRDNSKNTLYLQMNSLRAEDTAVYYCARGRRGMPTPDTVRKMSKSHLYFDSWGQGTLVTVSS
VL: DIQMTQSPSSLSASVGDRVTITCRARQSISTYLNWYQQKPGKAPKLLIYSASTLESGVPSRFSGSGSGTDFTLTISSLQPEDFATYYCQQSYRTPWTFGGGTKVEIK
B3: NRP1-276 (antibody, IgG2, V domains shown)
VH: EVQLLESGGGLVQPGGSLRLSCAASGFPFTSYAMSWVRQAPGKGLEWVSAISSSGTGTYYADSVKGRFTISRDNSKNTLYLQMNSLRAEDTAVYYCARLKRGGTNLVRKATRYQFYGMDAWGQGTLVTVSS
VL: B2 VL with R26S, I29V, T31R, S50G, E55Q, S56A, R93T, W96L
B4: NRP1-284 (antibody, IgG2, V domains shown)
VH: EVQLLESGGGLVQPGGSLRLSCAASGFTFSSSAMNWVRQAPGKGLEWVSAITSSGGSTYYADSVKGRFTISRDNSKNTLYLQMNSLRAEDTAVYYCARVTKMSPRSVGRRLRKGDGLDVWGQGTLVTVSS
VL: B2 VL with R26S, T31R, Y32S, N34S, T53R, E55Q, Q89L, R93S, T94S, W96R
B5: NRP1-264 (antibody, IgG2, V domains shown)
VH: EVQLLESGGGLVQPGGSLRLSCAASGFTFRGYAMSWVRQAPGKGLEWVSTISGSGGVTYYADSVKGRFTISRDNSKNTLYLQMNSLRAEDTAVYYCARVRVDARPRGMMSRYYGMDVWGQGTLVTVSS
VL: B2 VL with R26S, T31N, Y32R, S50G, T53S, E55Q, S56P, Y92F, R93N, W96R
B6: NRP1-248 (antibody, IgG2, V domains shown)
VH: EVQLLESGGGLVQPGGSLRLSCAASGFTFSKYAMSWVRQAPGKGLEWVSSISTSGGSTYYADSVKGRFTISRDNSKNTLYLQMNSLRAEDTAVYYCARGLLRLKPERRVRTTYYYGMDVWGQGTLVTVSS
VL: DIQMTQSPSSLSASVGDRVTITCRTSQSIGSYLNWYQQKPGKAPKLLIYASSSLQSGVPSRFSGSGSGTDFTLTISSLQPEDFATYYCQQSYSTPFSFGGGTKVEIK
B7: NRP1-270 (antibody, IgG2, V domains shown)
VH: EVQLLESGGGLVQPGGSLRLSCAASGFTFSIYAMGWVRQAPGKGLEWVSSISGRGGSIYYADSVKGRFTISRDNSKNTLYLQMNSLRAEDTAVYYCARSAGTFDYWGQGTLVTVSS
VL: B6 VL with T25A, G30R, Y32H, S51A, L54V, Q55E, T94A, F96L, S97T
B8: NRP1-268 (antibody, IgG2, V domains shown)
VH: EVQLLESGGGLVQPGGSLRLSCAASGFIFSTYALSWVRQAPGKGLEWVSGINGSGASTYYADSVKGRFTISRDNSKNTLYLQMNSLRAEDTAVYYCAREGQGWTSLLPRPSQRRPQRRPPYYGLDVWGQGTLVTVSS
VL: B6 VL with T25G, G30T, S31R, Y32F, S51T, S53R, Y92H, T94F, F96R, S97T
B9: NRP1-265 (antibody, IgG2, V domains shown)
VH: EVQLLESGGGLVQPGGSLRLSCAASGFTFGKYAMTWVRQAPGKGLEWVSGISGSGGRTNYADSVKGRFTISRDNSKNTLYLQMNSLRAEDTAVYYCARDFVAWRGGFRRYYSYNGMDVWGQGTLVTVSS
VL: B2 VL with R26S, S28Y, I29V, S50G, A51T, T53R, E55Q, R93S, W96K
B10: NRP1-285 (antibody, IgG2, V domains shown)
VH: EVQLLESGGGLVQPGGSLRLSCAASGFTLSNYGMSWVRQAPGKGLEWVSTISGSGSGTYYADSVKGRFTISRDNSKNTLYLQMNSLRAEDTAVYYCARAGKAFDYWGQGTLVTVSS
VL: B2 VL with R26S, I29V, T31S, N34S, S50A, S52T, T53S, W96L
B11: NRP1-274 (antibody, IgG2, V domains shown)
VH: EVQLLESGGGLVQPGGSLRLSCAASGFTFSKYAMNWVRQAPGKGLEWVSTISGSGGSTSYADSVKGRFTISRDNSKNTLYLQMNSLRAEDTAVYYCARGQDIKRNVMRRGGRLNWFDPWGQGTLVTVSS
VL: B2 VL with R26S, S30G, T31S, Y32N, S50G, S52T, T53N, E55Q, W96L
B12: NRP1-279 (antibody, IgG2, V domains shown)
VH: EVQLLESGGGLVQPGGSLRLSCAASGFTFSRHAMSWVRQAPGKGLEWVSGISGSGGRTHYADSVKGRFTISRDNSKNTLYLQMNSLRAEDTAVYYCARDPSTIAARRANHYYMDVWGQGTLVTVSS
VL: B2 VL with A25T, R26S, T31N, Y32F, S50R, E55Q, S56T, R93K, W96R
B13: NRP1-278 (antibody, IgG2, V domains shown)
VH: EVQLLESGGGLVQPGGSLRLSCAASGFTFRRYAMSWVRQAPGKGLEWVSAISGSGDRTYYADSVKGRFTISRDNSKNTLYLQMNSLRAEDTAVYYCARDRGLRYFDWSFDYWGQGTLVTVSS
VL: B2 VL with A25T, R26S, T31S, S50A, S52A, T53G, E55R, S56G, Y92F, R93T
B14: NRP1-254 (antibody, IgG2, V domains shown)
VH: EVQLLESGGGLVQPGGSLRLSCAASGFTFNTHAMSWVRQAPGKGLEWVSTISGSGGYTYYADSVKGRFTISRDNSKNTLYLQMNSLRAEDTAVYYCAKDLAAAGDYWGQGTLVTVSS
VL: B2 VL with R26S, S28R, S50A, T53H, E55Q, Y92H, R93T, W96L
B15: NRP1-286 (antibody, IgG2, V domains shown)
VH: EVQLLESGGGLVQPGGSLRLSCAASGFTLSAYAMNWVRQAPGKGLEWVSSISGSGGATYYADSVKGRFTISRDNSKNTLYLQMNSLRAEDTAVYYCARVMKTTRRIVGRRLRKGDGLDVWGQGTLVTVSS
VL: DIQMTQSPSSLSASVGDRVTITCRASQSIRNNLSWYQQKPGKAPKLLIYAASSLQTGVPSRFSGSGSGTDFTLTISSLQPEDFATYYCQQSFTIPRTFGGGTKVEIK
B16: NRP1-258 (antibody, IgG2, V domains shown)
VH: EVQLLESGGGLVQPGGSLRLSCAASGFRFGNYAMSWVRQAPGKGLEWVSAISGSAGRTYYADSVKGRFTISRDNSKNTLYLQMNSLRAEDTAVYYCARAPFQSRIGLAGTRRHKRDNFDQWGQGTLVTVSS
VL: DIQMTQSPSSLSASVGDRVTITCRASQSIDNFLNWYQQKPGKAPKLLIYGASKLQRGVPSRFSGSGSGTDFTLTISSLQPEDFATYYCQQSYSSPPVTFGGGTKVEIK
B17: NRP1-281 (antibody, IgG2, V domains shown)
VH: EVQLLESGGGLVQPGGSLRLSCAASGFTFRSLAVSWVRQAPGKGLEWVSTITGSGGATYYADSVKGRFTISRDNSKNTLYLQMNSLRAEDTAVYYCVRALAGRRDHWGQGTLVTVSS
VL: B16 VL with D30R, N31T, F32S, G50A, K53A, Q55H, R56S, S94T, P95L, V97I

Molecular target: T1, neuropilin-1 (NRP1) on HEK293 cells overexpressing NRP1 (UniProt O14786 22-923, limits assumed)
T1 construct: whole, on cells
Experiment: flow cytometry, HEK293-NRP1 vs HEK293

Row | Binder | 100 nM FACS (MFI Ratio)
1 | B1 | 0.9
2 | B2 | 1
3 | B3 | 2.6
4 | B4 | 1
5 | B5 | 3
6 | B6 | 5
7 | B7 | 3
8 | B8 | 2.1
9 | B9 | 2.5
10 | B10 | 1.3
11 | B11 | 1
12 | B12 | 0.7
13 | B13 | 3
14 | B14 | 2.8
15 | B15 | 1.4
16 | B16 | 0.7
17 | B17 | 1.4
